# According to patent US20120135916A1 (SIEMENS HEALTHCARE DIAGNOSTICS, published 2012):
# Bridge positions count the residues as written; N and C are the ends. Ends that are not written are not given here. I, II: the chains in the order shown.
# B1: R1 CTF25 R2 CTF25 heterodimer (peptide)
# peptide 1: HFYGVSNLQEFRYGLEGGCTDDTLL
# peptide 2: HFHGVSNLQEFRFMIGGGCSEEDAL
# modifications: disulfide I:19-II:19
# B2: R1 CTF32 R2 CTF32 heterodimer (peptide)
# peptide 1: VVAAAFVHFYGVSNLQEFRYGLEGGCTDDTLL
# peptide 2: VVAGAFVHFHGVSNLQEFRFMIGGGCSEEDAL
# modifications: disulfide I:26-II:26
# Molecular target: insulin degradation enzyme (IDE) (UniProt P14735 42-1019, limits assumed)
# Assay: cell-based or functional assay
row,Binder,IDE Inhibition (90% inhibition at) [µg/mL]
1,HFYGVSNLQEFRYGLEGGCTDDTLL [R1 CTF25],12.4
2,B1,0.6
3,VVAAAFVHFYGVSNLQEFRYGLEGGCTDDTLL (also: homodimer: inter-chain disulfide between Cys26 of both mer units) [R1 CTF32 R1 CTF32 homodimer],22.5
4,VVAAAFVHFYGVSNLQEFRYGLEGGCTDDTLL [R1 CTF32],50
5,HFHGVSNLQEFRFMIGGGCSEEDAL [R2 CTF25],9
6,VVAGAFVHFHGVSNLQEFRFMIGGGCSEEDAL [R2 CTF32],40
7,B2,1.2
8,VVAGAFVHFHGVSNLQEFRFMIGGGCSEEDAL (also: homodimer: inter-chain disulfide between Cys26 of both mer units) [R2 CTF32 R2 CTF32 homodimer],19
